This is an account of results in PMC9814530 (2022).

The labels stand for the following.
B1: ACE2-binding peptide ABP C1 (peptide)
chain: LFRGYFAAMNNLK-NH2
modifications: also: biotinylated, position not given here
B2: ACE2-binding peptide ABP C4 (peptide)
chain: LKVKYMWDYLFGK-NH2
modifications: also: biotinylated, position not given here
B3: ACE2-binding peptide ABP C2 (peptide)
chain: LHFAKWNHVWSWK-NH2
modifications: also: biotinylated, position not given here

Where no end group is shown, it is not given here.

human angiotensin converting enzyme 2 (ACE2), recombinant, sequence (Q9BYF1 18-740): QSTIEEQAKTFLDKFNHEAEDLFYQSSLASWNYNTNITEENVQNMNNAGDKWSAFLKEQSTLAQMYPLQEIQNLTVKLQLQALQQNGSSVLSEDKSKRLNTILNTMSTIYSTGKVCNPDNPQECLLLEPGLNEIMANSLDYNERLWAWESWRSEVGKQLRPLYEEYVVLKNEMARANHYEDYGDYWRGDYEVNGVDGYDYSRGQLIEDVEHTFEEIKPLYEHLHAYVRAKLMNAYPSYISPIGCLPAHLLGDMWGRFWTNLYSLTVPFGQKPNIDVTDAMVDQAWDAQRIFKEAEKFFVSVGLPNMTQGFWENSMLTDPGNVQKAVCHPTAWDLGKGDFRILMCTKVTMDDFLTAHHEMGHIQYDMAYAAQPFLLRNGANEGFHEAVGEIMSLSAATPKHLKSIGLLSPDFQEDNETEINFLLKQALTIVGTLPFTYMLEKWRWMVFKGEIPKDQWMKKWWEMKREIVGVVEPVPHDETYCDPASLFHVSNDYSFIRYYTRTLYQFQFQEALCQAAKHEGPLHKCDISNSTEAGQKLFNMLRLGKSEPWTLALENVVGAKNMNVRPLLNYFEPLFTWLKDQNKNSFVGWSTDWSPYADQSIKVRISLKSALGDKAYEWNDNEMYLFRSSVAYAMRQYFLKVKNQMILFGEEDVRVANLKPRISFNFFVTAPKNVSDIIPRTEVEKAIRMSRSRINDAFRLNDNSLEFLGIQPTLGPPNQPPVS

This assay has as its target human angiotensin converting enzyme 2 (ACE2), recombinant (human, UniProt Q9BYF1 18-740). The assay can be described thus: BLI. A general note: Biolayer interferometry detects binding as a change in optical thickness at a sensor tip.
Usually Kd stands for a measure of binding affinity in units of concentration. On to B1, for which the Kd was found to be 66 nM.
Regarding B2, the Kd worked out at 58 nM.
For B3, the Kd was found to be 57 nM.
